In paper PMC9848366, “Crystal structure of vaccinia virus G3/L5 sub-complex reveals a novel fold with extended inter-molecule interactions conserved among orthopoxviruses” (Emerging Microbes & Infections, 2023):

Target: T1, VACV G3-ectodomain, tag-free (G3-Ecto) (vaccinia virus (VACV), UniProt P68458 22-111)
T1 sequence: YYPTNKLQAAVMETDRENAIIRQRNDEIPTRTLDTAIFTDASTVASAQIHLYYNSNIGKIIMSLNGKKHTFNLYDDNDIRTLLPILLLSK
Assay: crystal structure
Conditions: both partners purified

B1: VACV L5-ectodomain, tag-free (L5-Ecto) (domain or fragment)
chain: NMFFMPKRKIPDPIDRLRRANLACEDDKLMIYGLPWMTTQTSALSINSKPIVYKDCAKLLRSINGSQPVSLNDVLRR
binding result: binds
